Results taken from patent publication US20150166647A1 (VLST, published 2015).

Tests used:
mouse MIP-1α/CCL3 = target: T1, mouse MIP-1α/CCL3 (mouse, UniProt P10855 24-92); assay: MSD electrochemiluminescence, chemokine coated at 1 µg/mL
T1 construct: also called muMIP-1α
T1 sequence: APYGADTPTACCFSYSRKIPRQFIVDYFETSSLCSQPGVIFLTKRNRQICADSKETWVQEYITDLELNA

mouse MIP-1β/CCL4 = target: T2, mouse MIP-1β/CCL4 (mouse, UniProt P14097 24-92); assay: as above
T2 construct: also called muMIP-1β
T2 sequence: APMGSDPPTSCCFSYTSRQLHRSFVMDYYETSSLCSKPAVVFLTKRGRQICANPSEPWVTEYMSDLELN

mouse RANTES/CCL5 = target: T3, mouse RANTES/CCL5 (mouse, UniProt P30882 24-91); assay: as above
T3 construct: also called muRANTES
T3 sequence (P30882 24-91 limits assumed): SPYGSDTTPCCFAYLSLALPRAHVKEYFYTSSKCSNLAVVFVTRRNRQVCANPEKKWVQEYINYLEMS

IL-8 = target: T4, IL-8; assay: MSD electrochemiluminescence assay; chemokine coated at 1 µg/mL, 7D12A at 3 µg/mL; background = BSA
T4 construct: also called IL-8/CXCL8; CXCL8
T4 sequence (chemokine, as listed by the source): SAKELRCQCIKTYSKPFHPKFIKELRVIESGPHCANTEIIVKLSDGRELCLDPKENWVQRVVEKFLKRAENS

MCP-3 [1] = target: T5, MCP-3; assay: as above
T5 construct: also called MCP-3/CCL7; CCL7
T5 sequence (chemokine, as listed by the source): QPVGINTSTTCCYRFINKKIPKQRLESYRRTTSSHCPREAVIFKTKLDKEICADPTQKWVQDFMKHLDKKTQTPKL

I-309 = target: T6, I-309; assay: MSD electrochemiluminescence assay; chemokine coated at 1 µg/mL, 18V4F at 3 µg/mL; background = BSA
T6 construct: also called I-309/CCL1; CCL1
T6 chemokine: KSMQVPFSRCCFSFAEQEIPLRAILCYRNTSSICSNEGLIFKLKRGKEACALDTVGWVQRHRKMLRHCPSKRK

Eotaxin-2 = target: T7, Eotaxin-2; assay: as above
T7 construct: also called Eotaxin-2/CCL24; CCL24
T7 chemokine: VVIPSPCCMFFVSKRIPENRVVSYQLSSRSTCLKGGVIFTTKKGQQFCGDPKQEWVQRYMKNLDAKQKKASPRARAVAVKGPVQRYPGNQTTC

MIP3-α = target: T8, MIP3-α; assay: as above
T8 construct: also called LARC/MIP-3α/CCL20; CCL20
T8 sequence (chemokine, as listed by the source): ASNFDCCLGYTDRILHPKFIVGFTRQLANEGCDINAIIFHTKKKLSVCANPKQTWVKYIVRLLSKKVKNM

HCC-4 = target: T9, HCC-4; assay: as above
T9 construct: also called HCC-4/CCL16; CCL16
T9 chemokine: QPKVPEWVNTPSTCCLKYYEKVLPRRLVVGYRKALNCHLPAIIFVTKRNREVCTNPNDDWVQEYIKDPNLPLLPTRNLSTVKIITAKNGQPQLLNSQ

MCP-3 [2] = target: T5, MCP-3; assay: as above
MCP-4 = target: T10, MCP-4; assay: as above
T10 construct: also called MCP-4/CCL13; CCL13
T10 sequence (chemokine, as listed by the source): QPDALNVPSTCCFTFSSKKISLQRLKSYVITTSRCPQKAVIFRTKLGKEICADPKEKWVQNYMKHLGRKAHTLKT

Eotaxin = target: T11, Eotaxin; assay: as above
T11 construct: also called Eotaxin/CCL11; CCL11
T11 sequence (chemokine, as listed by the source): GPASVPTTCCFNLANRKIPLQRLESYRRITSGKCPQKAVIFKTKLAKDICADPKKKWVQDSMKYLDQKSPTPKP

MDC = target: T12, MDC; assay: as above
T12 construct: also called MDC/CCL22; CCL22
T12 chemokine: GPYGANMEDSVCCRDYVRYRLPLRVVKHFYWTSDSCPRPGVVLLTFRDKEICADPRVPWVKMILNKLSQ

ELC = target: T13, ELC; assay: as above
T13 construct: also called ELC/MIP-3β/CCL19; CCL19
T13 chemokine: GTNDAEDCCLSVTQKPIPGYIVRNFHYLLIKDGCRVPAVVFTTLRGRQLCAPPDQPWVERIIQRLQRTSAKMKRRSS

human MPIF-1/CCL23 = target: T14, human MPIF-1/CCL23 (human, UniProt P55773 46-120); assay: as above
T14 sequence: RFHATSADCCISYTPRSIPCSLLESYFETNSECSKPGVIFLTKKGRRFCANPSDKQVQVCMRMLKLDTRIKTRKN

human HCC-2/MIP-1δ/CCL15 = target: T15, human HCC-2/MIP-1δ/CCL15 (human, UniProt Q16663 46-113); assay: as above
T15 sequence: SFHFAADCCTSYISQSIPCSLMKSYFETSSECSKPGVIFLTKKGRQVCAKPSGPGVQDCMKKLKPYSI

human HCC-1/CCL14/CCL14a = target: T16, human HCC-1/CCL14/CCL14a (human, UniProt Q16627 28-93); assay: as above
T16 sequence: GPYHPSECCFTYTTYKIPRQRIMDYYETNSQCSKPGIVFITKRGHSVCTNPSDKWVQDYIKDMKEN

human PARC/CCL18 = target: T17, human PARC/CCL18 (human, UniProt P55774 21-89); assay: as above
T17 sequence: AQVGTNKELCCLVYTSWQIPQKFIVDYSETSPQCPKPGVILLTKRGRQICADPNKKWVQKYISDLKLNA

human MCP-1/CCL2 = target: T18, human MCP-1/CCL2 (human, UniProt P13500 24-99); assay: as above
T18 construct: also called Biotin-MCP1
T18 sequence (P13500 24-99 limits assumed): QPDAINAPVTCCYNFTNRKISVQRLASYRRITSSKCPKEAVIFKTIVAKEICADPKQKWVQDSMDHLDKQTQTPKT

Measured: binding result

B1: monoclonal antibody 7D12A (antibody, V domains shown)
VH: EVHLQESGPSLVKPSQTLSLTCSVTGDSITNGYWNWIRKFPGNKLDYMGYISYDGNTYYNPSLKSRFSITRDTSKNQYYLQLNSVTTEDTATYYCSRGDYGTYVMDYWGQGTSVTVSS
VL: NIVLTQSPVSLAVSLGQRATISCRASESVDSHGNSFMHWYQQKPGQPPKLLIYLASNLESGVPARFTGGGSGSDFTLTIDPVEADDVGTYYCQQNNEDPYTFGGGTKLEIK
notes: also called MAb 7D12A
no binding (tested: 3 µg/mL): mouse MIP-1α/CCL3 | mouse MIP-1β/CCL4 | mouse RANTES/CCL5 | IL-8 | MCP-3 [1]

B2: monoclonal antibody 18V4F (antibody, V domains shown)
VH: QVQLKESGPGLVAPSQSLSITCTVSGFSLTGYGIHWVRQPPGKGLEWLGVIWPGGGTNYNSALMSRLSISKDNSKSQVFLKMNSLQTDDTAMYYCARGPLITTEVSMDYWGQGTSVTVSS
VL: QAVVTQESALTTSPGETVTLTCRSNTGAVTTSNYANWVQEKPDHLFTGLIGGTNNRAPGVPARFSGSLIGDKAALTITGAQTEDEAIYFCALWYSNHWVFGGGTKLTVLG
notes: also called MAb 18V4F
not listed: IL-8 | MCP-3 [1]
no binding (tested: 3 µg/mL): all other assays above
